Values of other authors in patent US11807856B2, “Recombinant Pichia pastoris strain and method for producing active pediocin PA-1” (VIET NAM NATIONAL UNIVERSITY HO CHI MINH CITY, priority 2019, dated 2023).
Where two headings read alike, the source gives them in different places. Ends that are not written are not given here.

Tests used:
[1] = pH 2-8
[2] = for activity after heat treatment: 100° C. for 60 minutes (1 hour); for antimicrobial activities after heat treatment: 121° C.

## native pediocin PA-1: class IIa bacteriocin, 4.6 kDa peptide with 44 amino acids, produced by Pediococcus acidilactici PAC1.0 (KYYGNGVTCGKHSCSVDWGKATTCIINNGAMAWATGGHQGNHKC; ends and bridges not checked; cysteine pairing not given here; UniProt P29430 19-62, looked up)
[1]
  time stable at pH levels of 2-8: at least 2 hours
[2]; listed as prior-art pediocin PA-1
  activity after heat treatment: stable
[2]; produced by Pediococcus acidilactici PAC1.0
  activity after heat treatment: remain its full activities
[2]; 20 minutes treatment, listed as prior-art pediocin PA-1
  antimicrobial activities after heat treatment: lost all activity
[2]; 20 minutes treatment, produced by Pediococcus acidilactici PAC1.0
  antimicrobial activities after heat treatment: completely disappeared
[2]; after 15 minutes
  antimicrobial activities after heat treatment: gradually reduced
